Experimental data from publication PMC9482650, “Quantitative fragmentomics allow affinity mapping of interactomes” (Nature Communications, 2022).

T1: GRIP1_5, Q9Y3R0
T1 sequence (Q9Y3R0 568-668, limits assumed, looked up): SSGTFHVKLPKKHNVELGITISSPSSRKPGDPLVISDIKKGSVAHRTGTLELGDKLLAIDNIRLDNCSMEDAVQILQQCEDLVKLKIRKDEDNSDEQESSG

T2: ARHGEF11, O15085
T2 sequence (O15085 42-136, limits assumed, looked up): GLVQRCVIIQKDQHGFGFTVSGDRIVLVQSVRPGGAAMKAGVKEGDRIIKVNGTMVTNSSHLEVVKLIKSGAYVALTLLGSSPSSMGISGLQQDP

T3: DLG3_1, Q92796
T3 sequence (Q92796 125-227, limits assumed, looked up): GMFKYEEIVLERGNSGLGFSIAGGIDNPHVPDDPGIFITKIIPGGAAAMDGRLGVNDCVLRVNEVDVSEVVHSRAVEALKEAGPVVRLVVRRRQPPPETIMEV

T4: MPP6, Q9NZW5
T4 sequence (Q9NZW5 125-219, limits assumed, looked up): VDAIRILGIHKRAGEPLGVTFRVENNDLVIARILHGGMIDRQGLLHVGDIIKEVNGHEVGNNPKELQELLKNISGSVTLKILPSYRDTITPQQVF

T5: SHANK1, Q9Y566
T5 sequence (Q9Y566 658-767, limits assumed, looked up): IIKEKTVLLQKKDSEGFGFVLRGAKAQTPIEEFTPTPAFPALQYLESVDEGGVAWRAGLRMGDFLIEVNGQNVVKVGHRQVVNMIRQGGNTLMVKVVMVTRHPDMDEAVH

T6: SIPA1L2, Q9P2F8
T6 sequence (Q9P2F8 945-1036, limits assumed, looked up): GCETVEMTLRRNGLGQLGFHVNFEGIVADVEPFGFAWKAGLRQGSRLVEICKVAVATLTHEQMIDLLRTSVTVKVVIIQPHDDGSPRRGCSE

T7: RADIL, Q96JH8
T7 sequence (Q96JH8 971-1071, limits assumed, looked up): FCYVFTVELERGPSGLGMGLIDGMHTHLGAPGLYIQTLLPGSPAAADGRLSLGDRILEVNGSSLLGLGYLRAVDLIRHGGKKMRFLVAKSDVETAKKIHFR

T8: DLG3_2, Q92796
T8 sequence (Q92796 221-321, limits assumed, looked up): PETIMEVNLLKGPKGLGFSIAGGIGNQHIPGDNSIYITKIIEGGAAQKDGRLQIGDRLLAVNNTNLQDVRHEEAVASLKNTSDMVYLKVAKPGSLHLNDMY

T9: LIN7A, O14910
T9 sequence (O14910 103-200, limits assumed, looked up): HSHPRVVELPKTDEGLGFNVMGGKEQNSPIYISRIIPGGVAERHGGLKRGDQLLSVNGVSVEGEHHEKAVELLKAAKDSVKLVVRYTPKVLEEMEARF


These binders were tested against T1, GRIP1_5, Q9Y3R0 (assay: holdup assay). Conditions: plain residues with an end cap or a label only (N-terminal biotin on a linker: ado-ado).
Design: key: below the threshold = too weak to quantify, mostly under pKd 3.1 to 4
With EKKTLIGIKL [GOT1L1, Q8NHS2] the pKd was “below the threshold”. With IKAIVDLTGL [TRAF2, Q12933] the pKd was “below the threshold”.

Each binder was assayed against MAGI1_2, Q96QZ7 (assay: holdup assay). Conditions: plain residues with an end cap or a label only (N-terminal biotin on a linker: ado-ado).
MAGI1_2, Q96QZ7, sequence (Q96QZ7 456-580): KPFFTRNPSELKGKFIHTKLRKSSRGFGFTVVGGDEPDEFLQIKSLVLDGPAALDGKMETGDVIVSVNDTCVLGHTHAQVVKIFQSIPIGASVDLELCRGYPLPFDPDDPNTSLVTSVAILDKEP
Design: key: below the threshold = too weak to quantify, mostly under pKd 3.1 to 4
With EKKTLIGIKL [GOT1L1, Q8NHS2] the pKd was “below the threshold”. With IKAIVDLTGL [TRAF2, Q12933] the pKd was “below the threshold”.

Each binder was assayed against MAGI2_2, Q86UL8 (assay: holdup assay). Conditions: plain residues with an end cap or a label only (N-terminal biotin on a linker: ado-ado).
MAGI2_2, Q86UL8, sequence (Q86UL8 410-522): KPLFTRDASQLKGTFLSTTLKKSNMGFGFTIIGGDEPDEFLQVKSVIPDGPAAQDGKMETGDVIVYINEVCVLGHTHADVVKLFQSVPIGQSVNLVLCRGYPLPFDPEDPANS
Design: key: below the threshold = too weak to quantify, mostly under pKd 3.1 to 4
In the case of EKKTLIGIKL [GOT1L1, Q8NHS2], the pKd is reported as 3.52. IKAIVDLTGL [TRAF2, Q12933] was tested, and the pKd was “below the threshold”.

These binders were tested against T2, ARHGEF11, O15085 (assay: holdup assay). Conditions: plain residues with an end cap or a label only (N-terminal biotin on a linker: ado-ado).
Design: key: below the threshold = too weak to quantify, mostly under pKd 3.1 to 4
In the case of EKKTLIGIKL [GOT1L1, Q8NHS2], the pKd is reported as “below the threshold”. IKAIVDLTGL [TRAF2, Q12933] was tested, and the pKd was “below the threshold”.

The binders below were run against GORASP2, Q9H8Y8 (assay: holdup assay). Conditions: plain residues with an end cap or a label only (N-terminal biotin on a linker: ado-ado).
Design: key: below the threshold = too weak to quantify, mostly under pKd 3.1 to 4
With EKKTLIGIKL [GOT1L1, Q8NHS2] the pKd was “below the threshold”. In the case of IKAIVDLTGL [TRAF2, Q12933], the pKd is reported as “below the threshold”.

These binders were tested against MAGI3_2, Q5TCQ9 (assay: holdup assay). Conditions: plain residues with an end cap or a label only (N-terminal biotin on a linker: ado-ado).
MAGI3_2, Q5TCQ9, sequence (Q5TCQ9 398-503): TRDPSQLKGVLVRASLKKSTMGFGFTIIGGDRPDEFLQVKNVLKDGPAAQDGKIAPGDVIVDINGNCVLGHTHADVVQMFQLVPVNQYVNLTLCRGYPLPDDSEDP
Design: key: below the threshold = too weak to quantify, mostly under pKd 3.1 to 4
In the case of EKKTLIGIKL [GOT1L1, Q8NHS2], the pKd is reported as “below the threshold”. For IKAIVDLTGL [TRAF2, Q12933], the pKd was “below the threshold”.

The binders below were run against T3, DLG3_1, Q92796 (assay: holdup assay). Conditions: plain residues with an end cap or a label only (N-terminal biotin on a linker: ado-ado).
Design: key: below the threshold = too weak to quantify, mostly under pKd 3.1 to 4
EKKTLIGIKL [GOT1L1, Q8NHS2] was tested, and the pKd was “below the threshold”. IKAIVDLTGL [TRAF2, Q12933] was tested, and the pKd was “below the threshold”.

These binders were tested against DLG4_3, P78352 (assay: holdup assay). Conditions: plain residues with an end cap or a label only (N-terminal biotin on a linker: ado-ado).
DLG4_3, P78352, sequence (P78352 306-403): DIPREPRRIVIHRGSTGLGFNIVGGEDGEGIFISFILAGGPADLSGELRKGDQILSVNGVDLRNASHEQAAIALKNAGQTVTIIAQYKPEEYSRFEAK
Design: key: below the threshold = too weak to quantify, mostly under pKd 3.1 to 4
EKKTLIGIKL [GOT1L1, Q8NHS2] was tested, and the pKd was “below the threshold”. With IKAIVDLTGL [TRAF2, Q12933] the pKd was “below the threshold”.

These binders were tested against TJP1_2, Q07157 (assay: holdup assay). Conditions: plain residues with an end cap or a label only (N-terminal biotin on a linker: ado-ado).
TJP1_2, Q07157, sequence (Q07157 181-274): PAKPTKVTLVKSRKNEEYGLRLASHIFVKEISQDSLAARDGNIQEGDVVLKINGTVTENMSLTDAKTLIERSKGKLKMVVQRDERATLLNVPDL
Design: key: below the threshold = too weak to quantify, mostly under pKd 3.1 to 4
With EKKTLIGIKL [GOT1L1, Q8NHS2] the pKd was “below the threshold”. In the case of IKAIVDLTGL [TRAF2, Q12933], the pKd is reported as “below the threshold”.

The binders below were run against IL16_1, Q14005 (assay: holdup assay). Conditions: plain residues with an end cap or a label only (N-terminal biotin on a linker: ado-ado).
IL16_1, Q14005, sequence (Q14005 210-306): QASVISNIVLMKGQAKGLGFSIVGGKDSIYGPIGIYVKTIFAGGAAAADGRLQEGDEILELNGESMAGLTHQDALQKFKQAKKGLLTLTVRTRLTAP
Design: key: below the threshold = too weak to quantify, mostly under pKd 3.1 to 4
With EKKTLIGIKL [GOT1L1, Q8NHS2] the pKd was “below the threshold”. In the case of IKAIVDLTGL [TRAF2, Q12933], the pKd is reported as “below the threshold”.

These binders were tested against T4, MPP6, Q9NZW5 (assay: holdup assay). Conditions: plain residues with an end cap or a label only (N-terminal biotin on a linker: ado-ado).
Design: key: below the threshold = too weak to quantify, mostly under pKd 3.1 to 4
For EKKTLIGIKL [GOT1L1, Q8NHS2], the pKd was “below the threshold”. With IKAIVDLTGL [TRAF2, Q12933] the pKd was 3.49.

Each binder was assayed against T5, SHANK1, Q9Y566 (assay: holdup assay). Conditions: plain residues with an end cap or a label only (N-terminal biotin on a linker: ado-ado).
Design: key: below the threshold = too weak to quantify, mostly under pKd 3.1 to 4
EKKTLIGIKL [GOT1L1, Q8NHS2] was tested, and the pKd was “below the threshold”. For IKAIVDLTGL [TRAF2, Q12933], the pKd was 3.49.

The binders below were run against AHNAK1, Q09666 (assay: holdup assay). Conditions: plain residues with an end cap or a label only (N-terminal biotin on a linker: ado-ado).
AHNAK1, Q09666, sequence (Q09666 4-100): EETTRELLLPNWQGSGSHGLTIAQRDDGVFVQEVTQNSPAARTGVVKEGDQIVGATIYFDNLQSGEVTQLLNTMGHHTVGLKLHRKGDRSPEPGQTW
Design: key: below the threshold = too weak to quantify, mostly under pKd 3.1 to 4
In the case of EKKTLIGIKL [GOT1L1, Q8NHS2], the pKd is reported as “below the threshold”. IKAIVDLTGL [TRAF2, Q12933] was tested, and the pKd was “below the threshold”.

What follows are binders tested against PDLIM1, O00151 (assay: holdup assay). Conditions: plain residues with an end cap or a label only (N-terminal biotin on a linker: ado-ado).
PDLIM1, O00151, sequence (O00151 1-87): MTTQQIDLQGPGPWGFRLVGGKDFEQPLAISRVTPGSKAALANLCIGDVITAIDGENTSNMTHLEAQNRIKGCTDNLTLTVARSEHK
Design: key: below the threshold = too weak to quantify, mostly under pKd 3.1 to 4
EKKTLIGIKL [GOT1L1, Q8NHS2] was tested, and the pKd was “below the threshold”. For IKAIVDLTGL [TRAF2, Q12933], the pKd was “below the threshold”.

The binders below were run against GOPC, Q9HD26 (assay: holdup assay). Conditions: plain residues with an end cap or a label only (N-terminal biotin on a linker: ado-ado).
Design: key: below the threshold = too weak to quantify, mostly under pKd 3.1 to 4
With EKKTLIGIKL [GOT1L1, Q8NHS2] the pKd was “below the threshold”. IKAIVDLTGL [TRAF2, Q12933] was tested, and the pKd was “below the threshold”.

Each binder was assayed against DLG1_3, Q12959 (assay: holdup assay). Conditions: plain residues with an end cap or a label only (N-terminal biotin on a linker: ado-ado).
Design: key: below the threshold = too weak to quantify, mostly under pKd 3.1 to 4
In the case of EKKTLIGIKL [GOT1L1, Q8NHS2], the pKd is reported as “below the threshold”. IKAIVDLTGL [TRAF2, Q12933] was tested, and the pKd was “below the threshold”.

What follows are binders tested against TJP2_1, Q9UDY2 (assay: holdup assay). Conditions: plain residues with an end cap or a label only (N-terminal biotin on a linker: ado-ado).
TJP2_1, Q9UDY2, sequence (Q9UDY2 24-128): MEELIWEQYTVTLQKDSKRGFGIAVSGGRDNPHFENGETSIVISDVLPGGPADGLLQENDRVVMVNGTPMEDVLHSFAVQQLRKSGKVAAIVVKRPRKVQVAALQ
Design: key: below the threshold = too weak to quantify, mostly under pKd 3.1 to 4
EKKTLIGIKL [GOT1L1, Q8NHS2] was tested, and the pKd was “below the threshold”. With IKAIVDLTGL [TRAF2, Q12933] the pKd was “below the threshold”.

The binders below were run against GRASP, Q7Z6J2 (assay: holdup assay). Conditions: plain residues with an end cap or a label only (N-terminal biotin on a linker: ado-ado).
GRASP, Q7Z6J2, sequence (Q7Z6J2 96-193): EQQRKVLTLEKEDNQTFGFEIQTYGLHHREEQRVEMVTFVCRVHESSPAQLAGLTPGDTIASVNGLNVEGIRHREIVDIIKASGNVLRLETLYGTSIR
Design: key: below the threshold = too weak to quantify, mostly under pKd 3.1 to 4
EKKTLIGIKL [GOT1L1, Q8NHS2] was tested, and the pKd was “below the threshold”. With IKAIVDLTGL [TRAF2, Q12933] the pKd was 3.94.

The binders below were run against SCRIB_2, Q14160 (assay: holdup assay). Conditions: plain residues with an end cap or a label only (N-terminal biotin on a linker: ado-ado).
SCRIB_2, Q14160, sequence (Q14160 857-960): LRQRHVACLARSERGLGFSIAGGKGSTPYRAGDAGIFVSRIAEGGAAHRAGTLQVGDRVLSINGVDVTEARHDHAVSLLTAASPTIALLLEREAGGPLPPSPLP
Design: key: below the threshold = too weak to quantify, mostly under pKd 3.1 to 4
EKKTLIGIKL [GOT1L1, Q8NHS2] was tested, and the pKd was “below the threshold”. In the case of IKAIVDLTGL [TRAF2, Q12933], the pKd is reported as “below the threshold”.

Each binder was assayed against DLG4_2, P78352 (assay: holdup assay). Conditions: plain residues with an end cap or a label only (N-terminal biotin on a linker: ado-ado).
DLG4_2, P78352, sequence (P78352 155-259): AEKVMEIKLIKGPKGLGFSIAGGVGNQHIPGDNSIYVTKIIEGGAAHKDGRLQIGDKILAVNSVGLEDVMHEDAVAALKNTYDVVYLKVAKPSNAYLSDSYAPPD
Design: key: below the threshold = too weak to quantify, mostly under pKd 3.1 to 4
EKKTLIGIKL [GOT1L1, Q8NHS2] was tested, and the pKd was “below the threshold”. In the case of IKAIVDLTGL [TRAF2, Q12933], the pKd is reported as “below the threshold”.

The binders below were run against T6, SIPA1L2, Q9P2F8 (assay: holdup assay). Conditions: plain residues with an end cap or a label only (N-terminal biotin on a linker: ado-ado).
Design: key: below the threshold = too weak to quantify, mostly under pKd 3.1 to 4
With EKKTLIGIKL [GOT1L1, Q8NHS2] the pKd was “below the threshold”. IKAIVDLTGL [TRAF2, Q12933] was tested, and the pKd was “below the threshold”.

Each binder was assayed against DLG1_1, Q12959 (assay: holdup assay). Conditions: plain residues with an end cap or a label only (N-terminal biotin on a linker: ado-ado).
Design: key: below the threshold = too weak to quantify, mostly under pKd 3.1 to 4
With EKKTLIGIKL [GOT1L1, Q8NHS2] the pKd was “below the threshold”. For IKAIVDLTGL [TRAF2, Q12933], the pKd was “below the threshold”.

Each binder was assayed against FRMPD3, Q5JV73 (assay: holdup assay). Conditions: plain residues with an end cap or a label only (N-terminal biotin on a linker: ado-ado).
FRMPD3, Q5JV73, sequence (Q5JV73 12-100): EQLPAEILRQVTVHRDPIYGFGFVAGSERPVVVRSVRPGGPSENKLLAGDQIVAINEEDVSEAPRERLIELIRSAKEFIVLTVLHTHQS
Design: key: below the threshold = too weak to quantify, mostly under pKd 3.1 to 4
With EKKTLIGIKL [GOT1L1, Q8NHS2] the pKd was “below the threshold”. IKAIVDLTGL [TRAF2, Q12933] was tested, and the pKd was “below the threshold”.

These binders were tested against LDB3, O75112 (assay: holdup assay). Conditions: plain residues with an end cap or a label only (N-terminal biotin on a linker: ado-ado).
LDB3, O75112, sequence (O75112 1-94): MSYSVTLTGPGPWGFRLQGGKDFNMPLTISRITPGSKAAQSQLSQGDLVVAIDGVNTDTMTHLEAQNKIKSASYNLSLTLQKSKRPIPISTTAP
Design: key: below the threshold = too weak to quantify, mostly under pKd 3.1 to 4
EKKTLIGIKL [GOT1L1, Q8NHS2] was tested, and the pKd was “below the threshold”. For IKAIVDLTGL [TRAF2, Q12933], the pKd was “below the threshold”.

The binders below were run against T7, RADIL, Q96JH8 (assay: holdup assay). Conditions: plain residues with an end cap or a label only (N-terminal biotin on a linker: ado-ado).
Design: key: below the threshold = too weak to quantify, mostly under pKd 3.1 to 4
EKKTLIGIKL [GOT1L1, Q8NHS2] was tested, and the pKd was “below the threshold”. In the case of IKAIVDLTGL [TRAF2, Q12933], the pKd is reported as “below the threshold”.

The binders below were run against T8, DLG3_2, Q92796 (assay: holdup assay). Conditions: plain residues with an end cap or a label only (N-terminal biotin on a linker: ado-ado).
Design: key: below the threshold = too weak to quantify, mostly under pKd 3.1 to 4
For EKKTLIGIKL [GOT1L1, Q8NHS2], the pKd was “below the threshold”. With IKAIVDLTGL [TRAF2, Q12933] the pKd was “below the threshold”.

Each binder was assayed against T9, LIN7A, O14910 (assay: holdup assay). Conditions: plain residues with an end cap or a label only (N-terminal biotin on a linker: ado-ado).
Design: key: below the threshold = too weak to quantify, mostly under pKd 3.1 to 4
With EKKTLIGIKL [GOT1L1, Q8NHS2] the pKd was “below the threshold”. For IKAIVDLTGL [TRAF2, Q12933], the pKd was “below the threshold”.

These binders were tested against SCRIB_3, Q14160 (assay: holdup assay). Conditions: plain residues with an end cap or a label only (N-terminal biotin on a linker: ado-ado).
SCRIB_3, Q14160, sequence (Q14160 999-1103): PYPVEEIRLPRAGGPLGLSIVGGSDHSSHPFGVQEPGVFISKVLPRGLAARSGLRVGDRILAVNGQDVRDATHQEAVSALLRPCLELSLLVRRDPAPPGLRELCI
Design: key: below the threshold = too weak to quantify, mostly under pKd 3.1 to 4
For EKKTLIGIKL [GOT1L1, Q8NHS2], the pKd was “below the threshold”. In the case of IKAIVDLTGL [TRAF2, Q12933], the pKd is reported as “below the threshold”.
